Data on seven molecules can be found in patent US20040265960A1 (Pfizer, published 2004).

Test [1] addresses T1, human IL-21R fusion protein (human, UniProt Q9HBE5 20-235, biotinylated in the assay of Example 11 (site not stated)).
T1 construct: Soluble fusion protein (Wyeth); The extracellular domain is said to be about residues 20-235; also called soluble IL-21R fusion protein; biotinylated human IL-21R fusion protein
In words: epitope competition assay: bio.hIL21R binding to immobilized MUF IgG (competitor), DELFIA. How it is done: The scFv clones 18A5, 19F5 and 18G4 were further tested in an epitope competition assay in order to determine whether they bound the same or a different epitope than MUF. ScFv-containing periplasmic extracts were prepared as described above for the various clones. Final buffer used was 50 mM MOPS, pH 7.4, 0.5 mM EDTA, 0.5 M sorbitol. The scFv-containing crude periplasmic extracts were screened for the ability to inhibit the binding of biotinlyated human IL-21R fusion protein (bio.hIL21R) to MuF IgG protein immobilized on plastic in a 96 well microtitre plate assay. Binding of bio.hIL21R was detected with Europium-labelled streptavidin and TRF detected using the DELFIA reagent kit (PerkinElmer). Positive clones were used in an epiope competition assay described herein.

The target in test [2] is T2, human IL-21R expressed on cells (human, UniProt Q9HBE5 20-538). In words: cell-based or functional assay.
T2 sequence (Q9HBE5 20-538): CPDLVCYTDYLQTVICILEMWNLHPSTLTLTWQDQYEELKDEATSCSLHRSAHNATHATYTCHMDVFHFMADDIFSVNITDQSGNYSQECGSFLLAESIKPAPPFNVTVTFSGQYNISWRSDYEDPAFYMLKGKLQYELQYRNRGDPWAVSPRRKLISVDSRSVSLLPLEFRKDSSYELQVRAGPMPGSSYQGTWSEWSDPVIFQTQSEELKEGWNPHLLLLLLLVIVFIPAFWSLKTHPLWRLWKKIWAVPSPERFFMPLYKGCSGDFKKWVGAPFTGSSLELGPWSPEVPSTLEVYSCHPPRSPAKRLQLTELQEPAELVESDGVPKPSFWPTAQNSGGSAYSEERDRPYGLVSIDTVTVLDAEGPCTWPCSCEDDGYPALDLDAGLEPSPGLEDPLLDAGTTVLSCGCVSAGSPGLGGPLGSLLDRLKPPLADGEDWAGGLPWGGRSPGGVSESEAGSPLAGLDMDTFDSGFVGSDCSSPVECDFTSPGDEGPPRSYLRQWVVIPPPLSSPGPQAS
Test [3] deals with T2, human IL-21R expressed on cells. Description: cell-based or functional assay. The source holds these as a separate data set.
In test [4] the target is T1, human IL-21R fusion protein. Description: phage ELISA on coated IL-21R fusion protein. How it is done: To establish the specificity of the scFᵥ's for IL-21R, a phage ELISA was performed against the IL-21R fusion protein. Individual TG1 cell colonies from the second selection were transferred to microtiter wells containing 100 μl of -2TYAG medium. M13K07 helper phage ([…]) was added to the exponentially growing TG1 culture, and the samples were incubated for one hour at 37° C. Plates were centrifuged and supernatant was removed, then the remaining pellets were suspended in 100 μl of 2TYAG and incubated overnight at 30° C. with shaking. The next day, plates were centrifuged and phage supernatant was transferred to new microtiter plate wells. Phage was blocked in MPBS prior to ELISA.
Wells of microtiter plates were coated with IL-21R fusion protein or control fusion protein (0.5-2.5 μg/ml) and incubated overnight at 4° C. The next day, fusion protein solution was removed and wells were blocked for 1 hour in MPBS. Wells were washed with PBS, then 50 μl of blocked phage was added. Plates were incubated for 1 hour, then washed 3 times with PBST and 3 times with PBS. Anti-M13-HRP conjugate (Pharmacia, Peapack, N.J.) was added to wells, and the samples were incubated for one hour. Wells were washed 3 times with PBST and 3 times with PBS. […] The color signal was measured by reading absorbance at 450 nm using a microtiter plate reader.

For test [5] the target is unchanged. Description: DELFIA competition: inhibition of human IL-21R fusion protein binding to captured IL-21-FLAG. How it is done: ScFv production was induced by addition of 1 mM IPTG to exponentially growing cultures and incubation overnight at 30° C. Crude scFv-containing periplasmic extracts (Griffiths et al.(1993) EMBO J., 12:725-734) were screened for the ability to inhibit the binding of human IL-21R fusion protein to human IL-21-FLAG tagged protein. Briefly, anti-FLAG antibody was immobilized onto plastic and used to capture FLAG-tagged human IL-21 protein. Binding of human IL-21R fusion protein was detected with a Europium-labelled antibody to the IL-21R fusion protein, and time resolved fluorescence was detected with the DELFIA reagent kit (PerkinElmer, Boston, Mass.).

T1 sequence (Q9HBE5 20-235): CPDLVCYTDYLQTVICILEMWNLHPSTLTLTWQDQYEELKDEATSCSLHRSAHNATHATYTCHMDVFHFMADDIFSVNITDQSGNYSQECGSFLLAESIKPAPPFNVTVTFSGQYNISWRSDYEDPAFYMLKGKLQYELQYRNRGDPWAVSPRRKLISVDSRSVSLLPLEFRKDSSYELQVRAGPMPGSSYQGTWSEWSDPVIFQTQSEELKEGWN

B1: 18G4 scFv (scFv)
scFv: EVQLVQSGAEVKKPGSSVKVSCKASGGTFNIYSVSWVRQAPGQGLEWMGRIIPMRDIANYAQRFQGRVTLTADKSSGTAYMELRSLRSDDTAVYWCATLAGPLDSWGRGTLVTVSSGGGGSGGGGSGGGGSALSSELTQDPAVSVALGQTVRITCQGDSLRTYYASWYQKRPGQAPILVMYGRNKRPSGIPDRFSGSFSGNRASLTITGAQAEDEADYYCKSRAYSGNLVEFGGGTKLTVLG
On to B1, for which the IC50 in test [1] came out at 1.4 nM. The “IC50 Value (nM) ScFv, hBaf3Mu-1 cell proliferation assay” value (“IC50 Value (nM) ScFv” for short) in test [2] worked out at 522 nM.

B2: MUF scFv (scFv)
scFv: QVQLVQSGAEVKKPGSSVRVSCKASGGTFNIYSVSWVRQAPGQGLEWMGRIIPMRDIANYAQRFQGRVTLTADKSSGTAYMELRGLRSDDTAVYWCATLAGPLDSWGQGTLVTVSSGGGGSGGGGSGGGGSALSSELTQDPAVSVGLGQTVTITCQGGSLRQYYASWYQQKPGQAPVVVIYGKNKRPSGIPDRFSGTTSGNTASLTITGAQAEDEADYYCKSRDSSGNHPLYVFGAGTKLTVLGAAAHHHHHH
In the case of B2, the “IC50, inhibition of cell response to IL-21 (hBaf3Mu-1 proliferation)” value in test [3] came to 268 nM. The “IC50 Value (nM) ScFv” value in test [2] came out at 140 nM.

B3: MUF antibody (human IgG1 lambda) (antibody, V domains shown)
VH: QVQLVQSGAEVKKPGSSVRVSCKASGGTFNIYSVSWVRQAPGQGLEWMGRIIPMRDIANYAQRFQGRVTLTADKSSGTAYMELRGLRSDDTAVYWCATLAGPLDSWGQGTLVTVSS
VL: SSELTQDPAVSVGLGQTVTITCQGGSLRQYYASWYQQKPGQAPVVVIYGKNKRPSGIPDRFSGTTSGNTASLTITGAQAEDEADYYCKSRDSSGNHPLYVFGAGTKLTVLG
notes: also called MUF IgG; MuF IgG protein
B3 had an IC50 in test [1] of 0.4 nM. The “IC50, inhibition of cell response to IL-21 (hBaf3Mu-1 proliferation)” value in test [3] amounted to 3 nM.

B4: 19F5 scFv (scFv)
scFv: EVQLVQSGAEVKKPGASVKVSCKASGYAFTDNYIHWVRQAPGQGLEWMGWINPKTGGTNYAQKFQGRVSMTRDTSINTAYMDLSRLTSDDTAVYYCTRSLSPYGGQLLYWGRGTMVTVSSGGGGSGGGGSGGGGSALSSELTQDPAVSVALGQTVRITCQGDSLRRYYASWFQQKPGQAPVLVIFGKNNRPSGIPDRFSASSSGNTASLTITGAQAEDEADYYCNSRDTSINHPVIFGGGTKLTVLG
Take B4: the “IC50 Value (nM) ScFv” value in test [2] amounted to 91 nM.

B5: MU11 phage clone (scFv)
scFv: EVQLVQSGGGVVQPGRSLRLSCAASGFTFSSYGMHWVRQAPGKGLEWVAVISYDGSNKYYADSVKGRFTISRDNSKNTLYLQMNSLRDEDTAVYYCARHGQYALDIWGQGTMVTVSSGGGGSGGGGSGGGGSDIVMTQSPSTLSASVGDRVTITCRASQGISSWLAWYQQKPGRAPKVLIYKASTLESGVPSRFSGSGSGTDFTLTISSLQPEDFATYYCQQSYSTPWTFGQGTKLEIKRAA
On to B5, for which the binding result in test [4] is on record as “binds”.

B6: R18 scFv (scFv)
scFv: QVQLQESGGGLVQPGGSLRLSCAASGFTFSSYAMSWVRQAPGKGLEWVSGISGSGTSTYYADSVKGRFTISRDNSKNTLYLQMNSLRAEDTAVYYCATHISERPRGAFDIWGRGTMVTVSSGGGGSGGGGSGGGGSALSSELTQDPAVSVALGQTVRITCQGDSLRKYHATWYQQKPRQAPVLVVYGKNRRPSGIPDRFSGSSSGNTASLTITGAQAGDEADYYCNSRDTSGLHYVFGAGTKLTVLG
notes: also called hIL21R18; scFv R18 clone
As for B6, the IC50 in test [5] came out at 770 nM. In addition, in test [2], the “IC50 Value (nM) ScFv” value was determined as 473 nM.

B7: 18A5 scFv (scFv)
scFv: QVQLQESGPGLVKTSETLSLTCAVSGYSISSGYYWGWIRQPPGKGLEWIGSISHTGNTYYNPPLKSRVTISVDTSKNQFSLKLSSVTAADTAVYYCARGGGISRPEYWGKGTLVTVSSGGGGSGGGGSGGGGSALSSELTQDPPVSVALGQTVTLTCQGDSLRTYYASWYQQKSGQAPILLLYGKHKRPSGIPDRFSGSTSGDTASLTITGAQAEDEADYYCNSRDSSGNPHVLFGGGTQLTVLS
As to B7, in test [1], the IC50 came to 114 nM. The “IC50 Value (nM) ScFv” value in test [2] stood at 213 nM.
